Laboratory results: PMC6030046, “Trapping of the transport-segment DNA by the ATPase domains of a type II topoisomerase” (Nature Communications, 2018)

B1: Streptococcus pneumoniae ParE44 ATPase domain (residues 1-402) (domain or fragment, UniProt Q59961 1-402, looked up)
chain: MSKKEININNYNDDAIQVLEGLDAVRKRPGMYIGSTDGAGLHHLVWEIVDNAVDEALSGFGDRIDVTINKDGSLTVQDHGRGMPTGMHAMGIPTVEVIFTILHAGGKFGQGGYKTSGGLHGVGSSVVNALSSWLEVEITRDGAVYKQRFENGGKPVTTLKKIGTAPKSKTGTKVTFMPDATIFSTTDFKYNTISERLNESAFLLKNVTLSLTDKRTNEAIEFHYENGVQDFVSYLNEDKEILTPVLYFEGEDNGFQVEVALQYNDGFSDNILSFVNNVRTKDGGTHETGLKSAITKVMNDYARKTGLLKEKDKNLEGSDYREGLAAVLSILVPEEHLQFEGQTKDKLGSPLARPVVDGIVADKLTFFLMENGELASNLIRKAIKARDAREAARKARDESRNG
notes: ParE subunit of topoisomerase IV, Streptococcus pneumoniae, UniProt Q59961, residues 1-402 (ATPase domain); Crystallised as a closed dimer with AMP-PNP, Mg2+ and duplex DNA; also called ParE ATPase domain; N-terminal ParE44; source: E. coli BL21 λDE3, purified (Ni-NTA)
B2: 6-mer GCGCGC duplex (dsDNA)
DNA 1: GCGCGC
DNA 2: GCGCGC
B3: 14-mer T-segment duplex (dsDNA)
DNA 1: GCATATATATATGC
DNA 2: GCATATATATATGC

target: Streptococcus pneumoniae topoisomerase IV ParC subunit, full length (Streptococcus pneumoniae) (UniProt P72525); assay: not given; conditions: not given

With “ParE D269V, full length (from UniProt Q59961 1-647) (enzyme)” as the molecule, how does the Cleavage: ATP-independent quinolone-promoted DNA cleavage activity of topo IV reconstituted from ParC and ParE, relative to wild type read?
Its Cleavage: ATP-independent quinolone-promoted DNA cleavage activity of topo IV reconstituted from ParC and ParE, relative to wild type is 100%.

With “ParE K281Q/D282A, full length (from UniProt Q59961 1-647) (enzyme)” as the molecule, how does the Cleavage: ATP-independent quinolone-promoted DNA cleavage activity of topo IV reconstituted from ParC and ParE, relative to wild type read?
Its Cleavage: ATP-independent quinolone-promoted DNA cleavage activity of topo IV reconstituted from ParC and ParE, relative to wild type is 100%.

For “ParE K291Q, full length (from UniProt Q59961 1-647) (enzyme)”, which Cleavage: ATP-independent quinolone-promoted DNA cleavage activity of topo IV reconstituted from ParC and ParE, relative to wild type is on record?
Its Cleavage: ATP-independent quinolone-promoted DNA cleavage activity of topo IV reconstituted from ParC and ParE, relative to wild type is 100%.

Which Cleavage: ATP-independent quinolone-promoted DNA cleavage activity of topo IV reconstituted from ParC and ParE, relative to wild type does the source give for “ParE K313Q/E316Q, full length (from UniProt Q59961 1-647) (enzyme)” here?
The Cleavage: ATP-independent quinolone-promoted DNA cleavage activity of topo IV reconstituted from ParC and ParE, relative to wild type was 100%.

For “ParE K346Q, full length (from UniProt Q59961 1-647) (enzyme)”, which Cleavage: ATP-independent quinolone-promoted DNA cleavage activity of topo IV reconstituted from ParC and ParE, relative to wild type is on record?
The Cleavage: ATP-independent quinolone-promoted DNA cleavage activity of topo IV reconstituted from ParC and ParE, relative to wild type was 100%.

How did the Cleavage: ATP-independent quinolone-promoted DNA cleavage activity of topo IV reconstituted from ParC and ParE, relative to wild type turn out when “ParE K346Q/R353A, full length (from UniProt Q59961 1-647) (enzyme)” was run?
Its Cleavage: ATP-independent quinolone-promoted DNA cleavage activity of topo IV reconstituted from ParC and ParE, relative to wild type is 100%.

“ParE R321Q, full length (from UniProt Q59961 1-647) (enzyme)” was tested. Which Cleavage: ATP-independent quinolone-promoted DNA cleavage activity of topo IV reconstituted from ParC and ParE, relative to wild type did it give?
Its Cleavage: ATP-independent quinolone-promoted DNA cleavage activity of topo IV reconstituted from ParC and ParE, relative to wild type is 100%.

For “ParE R353A, full length (from UniProt Q59961 1-647) (enzyme)”, which Cleavage: ATP-independent quinolone-promoted DNA cleavage activity of topo IV reconstituted from ParC and ParE, relative to wild type is on record?
Its Cleavage: ATP-independent quinolone-promoted DNA cleavage activity of topo IV reconstituted from ParC and ParE, relative to wild type is 100%.

With “ParE R353Q, full length (from UniProt Q59961 1-647) (enzyme)” as the molecule, how does the Cleavage: ATP-independent quinolone-promoted DNA cleavage activity of topo IV reconstituted from ParC and ParE, relative to wild type read?
The Cleavage: ATP-independent quinolone-promoted DNA cleavage activity of topo IV reconstituted from ParC and ParE, relative to wild type was 100%.

For “ParE R396Q, full length (from UniProt Q59961 1-647) (enzyme)”, which Cleavage: ATP-independent quinolone-promoted DNA cleavage activity of topo IV reconstituted from ParC and ParE, relative to wild type is on record?
Its Cleavage: ATP-independent quinolone-promoted DNA cleavage activity of topo IV reconstituted from ParC and ParE, relative to wild type is 100%.

Which Cleavage: ATP-independent quinolone-promoted DNA cleavage activity of topo IV reconstituted from ParC and ParE, relative to wild type does the source give for “ParE R400Q, full length (from UniProt Q59961 1-647) (enzyme)” here?
Its Cleavage: ATP-independent quinolone-promoted DNA cleavage activity of topo IV reconstituted from ParC and ParE, relative to wild type is 100%.

How did the Cleavage: ATP-independent quinolone-promoted DNA cleavage activity of topo IV reconstituted from ParC and ParE, relative to wild type turn out when “ParE S268A, full length (from UniProt Q59961 1-647) (enzyme)” was run?
The Cleavage: ATP-independent quinolone-promoted DNA cleavage activity of topo IV reconstituted from ParC and ParE, relative to wild type was 100%.

Which Cleavage: ATP-independent quinolone-promoted DNA cleavage activity of topo IV reconstituted from ParC and ParE, relative to wild type does the source give for “Streptococcus pneumoniae topoisomerase IV ParE subunit, wild type, full length (from UniProt Q59961 1-647) (enzyme)” here?
Its Cleavage: ATP-independent quinolone-promoted DNA cleavage activity of topo IV reconstituted from ParC and ParE, relative to wild type is 100%.

Target: the molecule itself
Assay: crystal structure; ParE44 co-crystallised with 14-mer duplex DNA 5'-…-3', 2 mM AMP-PNP, 10 mM MgCl2; sitting drop, 50 mM HEPES pH 7.0, 5 mM MgCl2, 25% PEG MME 550; through-hole DNA bound complex, space group C2, 2.83 Å
Conditions: not given

Does B1 bind?
Result: binds

target: T1, ParE44 (topoisomerase IV ParE ATPase domain) (Streptococcus pneumoniae, UniProt Q59961 1-402); assay: X-ray crystallography (1.97 A); AMP-PNP, Mg2+; side-bound outside the hole, two duplexes per dimer; Co-crystallization: protein:DNA 1:2.2, 10 mM MgCl2, 2 mM AMP-PNP, protein in 20 mM Tris-HCl pH 7.5, 100 mM NaCl, 1 mM 2-mercaptoethanol; 14-mer: 50 mM HEPES pH; conditions: protein: recombinant; tags: C-terminal 6xHis; chain copies: 2; blunt; self-complementary

Does B2 bind?
Result: binds

target: T1, ParE44 (topoisomerase IV ParE ATPase …); assay: X-ray crystallography (2.83 A); AMP-PNP, Mg2+; DNA kinked in the dimer hole, one duplex per dimer; putative intercalated AMP-PNP; Co-crystallization: protein:DNA 1:2.2, 10 mM MgCl2, 2 mM AMP-PNP, protein in 20 mM Tris-HCl pH 7.5, 100 mM NaCl, 1 mM 2-mercaptoethanol; 14-mer: 50 mM HEPES pH; conditions: protein: recombinant; tags: C-terminal 6xHis; chain copies: 2; blunt; self-complementary

Does B3 bind?
Result: binds
